Holding throughout (experiment): TIRF microscopy
The target in test [1] is taxol-stabilized microtubules assembled from porcine brain tubulin (porcine) (UniProt P02550).
Test [2] has the same target. The source holds these as a separate data set.
The target is the same in test [3]. This is another data set of the same source.
For test [4] the target is unchanged. The source holds these as a separate data set.
The target is the same in test [5]. The source holds these as a separate data set.
The target is the same in test [6]. This is another data set of the same source.
For test [7] the target is unchanged. The source holds these as a separate data set.
The target is the same in test [8]. The source holds these as a separate data set.
Test [9] shares this target. This is another data set of the same source.
For test [10] the target is unchanged. This is another data set of the same source.
The target is the same in test [11]. The source holds these as a separate data set.
For test [12] the target is unchanged. The source holds these as a separate data set.
The target is the same in test [13]. This is another data set of the same source.

Where “and” joins values, the source holds several entries; their conditions need not be identical. Equal values may be shown once. Read-outs that look alike come from different tables or passages of the source.

As for “KIF5B_(1-560)-mScarlet (from UniProt P33176 1-560) (domain or fragment)”, the landing rate (motors μm^−1min^−1nM^−1) in [1] was 0.03; in test [2], 0.06; in test [3], 0.03; in [4] it was 0.07; in [5] it was 0.01 and 0.005; in test [6], 0.02. The landing rate (motors μm^−1min^−1nM^−1) in test [7] worked out at 0.05; in test [8] it was 0.58; in test [9], 2.72; in test [10] it was 0.11.

“KIF5B_(K-insert)-mScarlet (from UniProt P33176 1-560) (domain or fragment)”: the landing rate (motors μm^−1min^−1nM^−1) in [11] was 0.83; in test [12], 6.04; in [10], 5.44.

On to “TMR-GST-dynein motor domain (SNAPf-GST-hDyn) (domain or fragment)”, for which the fluorescence intensity on microtubules in [10] was 13200 A.U; in test [13], 13700 A.U.

The substance “p150-mScarlet (from UniProt Q14203-1 1-1278) (natural protein)” gave a fluorescence intensity on microtubules in test [10] of 44200 A.U.

These data come from paper PMC7181406.
